Test results as given in PMC7841161, “APE1 distinguishes DNA substrates in exonucleolytic cleavage by induced space-filling”.

Assays:
[1] = target: T1, mAPE1 full-length (mouse, UniProt P28352 1-317); experiment: EMSA; 50 mM EDTA; complex visible at 1 uM mAPE1; EMSA: 50 mM EDTA, 20 mM Tris-HCl pH 7.0, 120 mM NaCl, on ice 10 min + 10 min, FAM-labeled substrates, TBE native gel; settings: protein: recombinant, label: FAM
[2] = target: T1, mAPE1 full-length; experiment: EMSA; 50 mM EDTA; similar to blunt; EMSA: 50 mM EDTA, 20 mM Tris-HCl pH 7.0, 120 mM NaCl, on ice 10 min + 10 min, FAM-labeled substrates, TBE native gel; settings: protein: recombinant, label: FAM
[3] = target: mAPE1 in blunt-ended crystal (mouse, UniProt P28352 40-317); experiment: X-ray crystallography; product complex; EMSA: 50 mM EDTA, 20 mM Tris-HCl pH 7.0, 120 mM NaCl, on ice 10 min + 10 min, FAM-labeled substrates, TBE native gel; settings: protein: recombinant; chain copies: 2; 2 copies of one strand, 1-nt 5' overhangs; central A-A from self-pairing
[4] = target: mAPE1 in recessed crystal (mouse, UniProt P28352 31-317); experiment: as above; settings: protein: recombinant; 2 copies of one strand, 2-nt 5' overhangs; central A-A from self-pairing
[5] = target: T1, mAPE1 full-length; experiment: EMSA; 50 mM EDTA; weak low-MW complex seen; EMSA: 50 mM EDTA, 20 mM Tris-HCl pH 7.0, 120 mM NaCl, on ice 10 min + 10 min, FAM-labeled substrates, TBE native gel; settings: protein: recombinant; label: FAM; 3 strands, nick between strands 1 and 2
[6] = target: T1, mAPE1 full-length; experiment: EMSA; 50 mM EDTA; mostly complexed at 5 uM, stronger than blunt; EMSA: 50 mM EDTA, 20 mM Tris-HCl pH 7.0, 120 mM NaCl, on ice 10 min + 10 min, FAM-labeled substrates, TBE native gel; settings: protein: recombinant; label: FAM; 5' overhang 20 nt on strand 2
[7] = target: T1, mAPE1 full-length; experiment: EMSA; 50 mM EDTA; extra low-MW complex at 0.5 uM, higher affinity than ends; EMSA: 50 mM EDTA, 20 mM Tris-HCl pH 7.0, 120 mM NaCl, on ice 10 min + 10 min, FAM-labeled substrates, TBE native gel; settings: protein: recombinant; label: FAM; 3 strands, 1-nt gap between strands 1 and 2

T1 sequence (P28352 whole entry): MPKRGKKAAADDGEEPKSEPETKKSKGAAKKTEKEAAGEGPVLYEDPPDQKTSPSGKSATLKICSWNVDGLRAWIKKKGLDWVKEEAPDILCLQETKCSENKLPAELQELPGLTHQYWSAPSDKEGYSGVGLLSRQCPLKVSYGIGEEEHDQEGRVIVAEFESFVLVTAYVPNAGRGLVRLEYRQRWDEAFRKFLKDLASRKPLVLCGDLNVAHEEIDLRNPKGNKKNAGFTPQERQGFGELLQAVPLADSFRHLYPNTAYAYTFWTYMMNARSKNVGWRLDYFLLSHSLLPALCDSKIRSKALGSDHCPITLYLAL
Chain of mAPE1 in blunt-ended crystal (P28352 40-317): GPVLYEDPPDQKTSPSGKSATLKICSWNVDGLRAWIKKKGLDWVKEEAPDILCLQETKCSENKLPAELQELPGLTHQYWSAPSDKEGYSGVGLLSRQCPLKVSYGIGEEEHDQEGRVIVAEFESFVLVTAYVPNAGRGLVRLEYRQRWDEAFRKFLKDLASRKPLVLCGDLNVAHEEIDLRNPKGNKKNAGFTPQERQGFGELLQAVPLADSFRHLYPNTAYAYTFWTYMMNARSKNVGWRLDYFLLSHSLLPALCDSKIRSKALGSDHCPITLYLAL
Chain of mAPE1 in recessed crystal (P28352 31-317): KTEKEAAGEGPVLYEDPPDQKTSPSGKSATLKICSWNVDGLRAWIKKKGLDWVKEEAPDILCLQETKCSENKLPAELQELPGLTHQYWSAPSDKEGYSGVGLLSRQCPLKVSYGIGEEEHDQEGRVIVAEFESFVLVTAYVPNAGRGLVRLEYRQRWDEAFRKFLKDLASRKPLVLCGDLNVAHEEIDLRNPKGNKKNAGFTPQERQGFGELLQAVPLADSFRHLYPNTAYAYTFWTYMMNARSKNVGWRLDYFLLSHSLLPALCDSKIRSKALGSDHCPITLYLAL

B1: recessed dsDNA 5 nt 5' overhang (dsDNA)
DNA 1: ACTGGACAAATACTCCGAGG
DNA 2: ATCACCCTCGGAGTATTTGTCCAGT
B1: binds ([1]; 5' overhang 5 nt on strand 2).

B2: dsDNA 20 mer 2 nt mismatch (dsDNA)
DNA 1: ACTGGACAAATACTCCGAGG
DNA 2: AATCGGAGTATTTGTCCAGT
B2: binds ([2]; 2 nt mismatch at 3' end of strand 1).

B3: blunt-ended dsDNA product (crystal) (dsDNA)
DNA 1: CGTAATAC
DNA 2: CGTAATAC
B3: binds [3].

B4: recessed dsDNA product (crystal) (dsDNA)
DNA 1: GCGTAATAC
DNA 2: GCGTAATAC
B4: binds [4].

B5: dsDNA 20 mer 1 nt mismatch (dsDNA)
DNA 1: ACTGGACAAATACTCCGAGG
DNA 2: ACTCGGAGTATTTGTCCAGT
B5: binds ([2]; 1 nt mismatch at 3' end of strand 1).

B6: blunt-ended dsDNA 20 bp (dsDNA)
DNA 1: ACTGGACAAATACTCCGAGG
DNA 2: CCTCGGAGTATTTGTCCAGT
B6: binds ([1]; blunt).

B7: nicked dsDNA 40 mer 5'-OH (dsDNA)
DNA 1: ACTGGACAAATACTCCGAGG
DNA 2: GTGATTAGTGAAGCGTGCTC
DNA 3: GAGCACGCTTCACTAATCACCCTCGGAGTATTTGTCCAGT
modifications: 5'-OH at nick
B7: binds [5].

B8: recessed dsDNA 20 nt 5' overhang (dsDNA)
DNA 1: ACTGGACAAATACTCCGAGG
DNA 2: GAGCACGCTTCACTAATCACCCTCGGAGTATTTGTCCAGT
B8: binds [6].

B9: 1-nt gapped dsDNA 40 mer, matched (dsDNA)
DNA 1: ACTGGACAAATACTCCGAGG
DNA 2: TGATTAGTGAAGCGTGCTC
DNA 3: GAGCACGCTTCACTAATCACCCTCGGAGTATTTGTCCAGT
modifications: 5'-OH or 5'-phosphate at gap margin (not stated which for EMSA)
B9: binds [7].
